Results: patent CN116496403A (ZEDA BIOMEDICAL CO LTD, dated 2023)
Values joined by “and” are separate entries in the source; they are usually repeats but may differ in a detail not shown here. Equal values may be shown once.

B1: 抗IGF1R单抗 A12 (antibody, human IgG1, lambda, V domains shown)
VH: EVQLVQSGAEVKKPGSSVKVSCKASGGTFSSYAISWVRQAPGQGLEWMGGIIPIFGTANYAQKFQGRVTITADKSTSTAYMELSSLRSEDTAVYYCARAPLRFLEWSTQDHYYYYYMDVWGKGTTVTVSS
VL: SSELTQDPAVSVALGQTVRITCQGDSLRSYYATWYQQKPGQAPILVIYGENKRPSGIPDRFSGSSSGNTASLTITGAQAEDEADYYCKSRDGSGQHLVFGGGTKLTVLG
notes: also called anti-IGF1RmAb; 抗IGF1R抗体A12
B2: 抗PDL1×IGF1R双特异性抗体 D31-5 (bispecific antibody, human IgG1, kappa)
heavy: not shown
light: EIVLTQSPDFLSVTPKEKVTITCRASQSIGTTIHWYQQKPDQSPKLLIKYASQSFSGVPSRFSGSGSGTDFTLTINSVEAEDAATYYCQQSNSWPLTFGAGTKLEIKRTVAAPSVFIFPPSDEQLKSGTASVVCLLNNFYPREAKVQWKVDNALQSGNSQESVTEQDSKDSTYSLSSTLTLSKADYEKHKVYACEVTHQGLSSPVTKSFNRGEC
notes: Anti-PDL1 IgG1 with A12 scFv1 (VL-L1-VH) at the C-terminus of each heavy chain
B3: 抗PDL1×IGF1R双特异性抗体 D31-6 (bispecific antibody, human IgG1, kappa)
heavy: not shown
light: B2 light
notes: Anti-PDL1 IgG1 with A12 scFv2 (VH-L1-VL) at the C-terminus of each heavy chain
B4: 抗PDL1×IGF1R双特异性抗体 D31-8 (bispecific antibody, human IgG1, kappa)
heavy: not shown
light: B2 light
notes: Anti-PDL1 IgG1 with A12 scFv1 at the N-terminus of each heavy chain
B5: 抗PDL1×IGF1R双特异性抗体 D31-7 (bispecific antibody, human IgG1, kappa)
heavy: not shown
light: B2 light
notes: Anti-PDL1 IgG1 with A12 scFv2 at the N-terminus of each heavy chain
B6: 抗PDL1×IGF1R双特异性抗体 D31-1 (bispecific antibody, human IgG1, lambda)
heavy: not shown
light: SSELTQDPAVSVALGQTVRITCQGDSLRSYYATWYQQKPGQAPILVIYGENKRPSGIPDRFSGSSSGNTASLTITGAQAEDEADYYCKSRDGSGQHLVFGGGTKLTVLGQPKAAPSVTLFPPSSEELQANKATLVCLISDFYPGAVTVAWKADSSPVKAGVETTTPSKQSNNKYAASSYLSLTPEQWKSHRSYSCQVTHEGSTVEKTVAPAECS
notes: A12 IgG1 with anti-PDL1 scFv1 (VL-L1-VH) at the C-terminus of each heavy chain
B7: 抗PDL1×IGF1R双特异性抗体 D31-2 (bispecific antibody, human IgG1, lambda)
heavy: not shown
light: B6 light
notes: A12 IgG1 with anti-PDL1 scFv2 (VH-L1-VL) at the C-terminus of each heavy chain
B8: 抗PDL1×IGF1R双特异性抗体 D31-4 (bispecific antibody, human IgG1, lambda)
heavy: not shown
light: B6 light
notes: A12 IgG1 with anti-PDL1 scFv1 at the N-terminus of each heavy chain
B9: 抗PDL1×IGF1R双特异性抗体 D31-3 (bispecific antibody, human IgG1, lambda)
heavy: not shown
light: B6 light
notes: A12 IgG1 with anti-PDL1 scFv2 at the N-terminus of each heavy chain
B10: 抗PD-L1单抗(anti-PDL1 mAb) (antibody, human IgG1, kappa, V domains shown)
VH: QVQLQQSGGGLVKPSQSLSLTCTVSGFSLTSYGVHWVRQPPGKGLEWIGLIWSGGGTDYNPSLKSRLTISRDTSKNQVSFKISSLTAADTAVYYCARQLGLRAMDYWGQGTSVTVSS
VL: EIVLTQSPDFLSVTPKEKVTITCRASQSIGTTIHWYQQKPDQSPKLLIKYASQSFSGVPSRFSGSGSGTDFTLTINSVEAEDAATYYCQQSNSWPLTFGAGTKLEIKR
notes: also called 抗人PD-L1单抗

Columns and labels:
PDL1-ECD-hFc蛋白 = biological target: T1, PDL1-ECD-hFc蛋白 (UniProt Q9NZQ7 19-238); experiment: sandwich ELISA: PDL1-ECD-hFc coated, antibody, then IGF1R-ECD-His, HRP-anti-His
T1 construct: extracellular domain; PDL1-ECD-His with the C-terminal tag changed to hFc; also called PDL1抗原; not shown: hFc tag at the C-terminus in place of the His tag

IGF1R-ECD-His蛋白 [1] = biological target: T2, IGF1R-ECD-His蛋白 (UniProt P08069 31-935); experiment: ELISA, IGF1R-ECD-His coated, HRP-anti-hFc
T2 construct: extracellular domain; Expressed in HEK-293E cells; also called IGF1R抗原

IGF1R on BxPC3 cells = IGF1R on BxPC3 cells (human, UniProt P08069 31-1367); experiment: cell-based or functional assay
[2] = biological target: PD-L1 on PD-L1 aAPC/CHO-K1 cells (UniProt Q9NZQ7 19-290); experiment: cell-based or functional assay
PDL1-ECD-His蛋白 = biological target: T3, PDL1-ECD-His蛋白 (UniProt Q9NZQ7 19-238); experiment: ELISA, PDL1-ECD-His coated, HRP goat anti-human Fc
T3 construct: extracellular domain; Expressed in HEK-293E cells; also called PD-L1抗原; PDL1抗原

IGF1R-ECD-His蛋白 [3] = biological target: T2, IGF1R-ECD-His蛋白; experiment: sandwich ELISA: PDL1-ECD-hFc coated, antibody, then IGF1R-ECD-His, HRP-anti-His

T3 sequence (Q9NZQ7 other isoform, or with tags, fused parts or gaps): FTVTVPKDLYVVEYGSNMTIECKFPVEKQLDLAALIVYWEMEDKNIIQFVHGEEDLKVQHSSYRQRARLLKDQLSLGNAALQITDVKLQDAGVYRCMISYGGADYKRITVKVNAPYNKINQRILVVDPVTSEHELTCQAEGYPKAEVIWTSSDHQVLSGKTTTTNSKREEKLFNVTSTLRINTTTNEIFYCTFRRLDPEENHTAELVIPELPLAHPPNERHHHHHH
Chain of IGF1R on BxPC3 cells (P08069 31-1367): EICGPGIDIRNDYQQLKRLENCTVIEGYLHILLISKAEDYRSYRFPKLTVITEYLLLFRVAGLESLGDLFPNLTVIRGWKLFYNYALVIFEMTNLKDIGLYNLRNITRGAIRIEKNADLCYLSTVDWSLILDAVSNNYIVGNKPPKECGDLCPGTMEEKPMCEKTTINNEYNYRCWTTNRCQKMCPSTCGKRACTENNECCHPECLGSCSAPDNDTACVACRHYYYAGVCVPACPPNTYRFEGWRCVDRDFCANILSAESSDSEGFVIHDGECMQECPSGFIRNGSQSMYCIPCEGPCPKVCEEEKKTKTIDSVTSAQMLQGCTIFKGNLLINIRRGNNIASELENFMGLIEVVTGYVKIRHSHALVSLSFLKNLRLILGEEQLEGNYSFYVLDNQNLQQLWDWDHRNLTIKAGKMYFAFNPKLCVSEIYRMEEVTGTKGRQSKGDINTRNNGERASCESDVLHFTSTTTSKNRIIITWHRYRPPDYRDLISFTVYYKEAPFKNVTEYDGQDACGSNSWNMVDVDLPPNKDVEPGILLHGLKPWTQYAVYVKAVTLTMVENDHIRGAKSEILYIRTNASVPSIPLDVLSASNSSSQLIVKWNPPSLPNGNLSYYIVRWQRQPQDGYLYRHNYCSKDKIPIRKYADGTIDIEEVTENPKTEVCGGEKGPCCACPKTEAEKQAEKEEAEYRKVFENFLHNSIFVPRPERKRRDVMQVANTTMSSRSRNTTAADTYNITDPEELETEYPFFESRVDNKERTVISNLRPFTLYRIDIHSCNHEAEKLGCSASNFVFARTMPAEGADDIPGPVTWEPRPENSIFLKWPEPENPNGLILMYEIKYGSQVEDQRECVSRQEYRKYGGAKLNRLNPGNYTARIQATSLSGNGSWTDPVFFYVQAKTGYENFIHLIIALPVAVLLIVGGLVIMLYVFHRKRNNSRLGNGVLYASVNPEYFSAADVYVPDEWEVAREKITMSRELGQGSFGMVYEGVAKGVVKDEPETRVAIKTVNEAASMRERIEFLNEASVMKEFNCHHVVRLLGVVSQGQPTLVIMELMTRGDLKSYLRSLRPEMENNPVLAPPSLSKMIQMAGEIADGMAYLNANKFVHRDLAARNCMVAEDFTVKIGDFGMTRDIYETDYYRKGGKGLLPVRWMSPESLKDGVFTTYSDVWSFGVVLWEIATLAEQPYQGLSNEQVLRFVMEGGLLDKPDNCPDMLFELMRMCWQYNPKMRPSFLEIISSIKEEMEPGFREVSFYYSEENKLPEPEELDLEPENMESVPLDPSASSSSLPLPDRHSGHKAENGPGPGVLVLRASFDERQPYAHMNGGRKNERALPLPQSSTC
T2 sequence (P08069 31-935): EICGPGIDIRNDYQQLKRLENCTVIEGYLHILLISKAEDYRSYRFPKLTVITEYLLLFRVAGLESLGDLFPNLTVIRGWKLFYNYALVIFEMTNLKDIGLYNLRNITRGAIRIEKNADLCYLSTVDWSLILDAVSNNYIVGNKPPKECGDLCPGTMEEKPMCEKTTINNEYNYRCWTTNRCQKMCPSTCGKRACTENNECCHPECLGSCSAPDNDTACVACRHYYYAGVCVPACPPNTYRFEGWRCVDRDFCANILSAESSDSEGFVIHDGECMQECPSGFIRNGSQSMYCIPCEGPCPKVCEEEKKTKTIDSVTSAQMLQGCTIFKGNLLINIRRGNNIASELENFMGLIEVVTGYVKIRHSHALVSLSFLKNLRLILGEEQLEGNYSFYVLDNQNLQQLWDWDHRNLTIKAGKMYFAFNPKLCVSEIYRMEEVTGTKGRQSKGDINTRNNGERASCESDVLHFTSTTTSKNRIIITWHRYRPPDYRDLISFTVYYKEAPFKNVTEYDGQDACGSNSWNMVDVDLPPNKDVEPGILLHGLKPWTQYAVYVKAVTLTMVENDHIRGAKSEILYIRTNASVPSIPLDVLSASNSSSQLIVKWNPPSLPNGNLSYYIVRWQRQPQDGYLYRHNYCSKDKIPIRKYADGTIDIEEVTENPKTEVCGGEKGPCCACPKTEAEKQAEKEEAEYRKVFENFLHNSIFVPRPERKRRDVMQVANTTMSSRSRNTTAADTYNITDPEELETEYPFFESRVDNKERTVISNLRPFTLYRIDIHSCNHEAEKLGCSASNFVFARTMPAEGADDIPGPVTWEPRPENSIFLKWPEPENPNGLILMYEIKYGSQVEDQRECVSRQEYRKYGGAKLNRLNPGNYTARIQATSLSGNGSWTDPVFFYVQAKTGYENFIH
Chain of PD-L1 on PD-L1 aAPC/CHO-K1 cells (Q9NZQ7 19-290): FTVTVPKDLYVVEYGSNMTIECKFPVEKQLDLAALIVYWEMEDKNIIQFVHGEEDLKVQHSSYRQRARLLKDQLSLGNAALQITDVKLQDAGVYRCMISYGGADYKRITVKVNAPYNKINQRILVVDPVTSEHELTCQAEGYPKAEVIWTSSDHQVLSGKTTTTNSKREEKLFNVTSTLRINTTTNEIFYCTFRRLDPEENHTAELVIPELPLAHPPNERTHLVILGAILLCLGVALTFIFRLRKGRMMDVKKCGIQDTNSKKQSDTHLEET
T1 sequence (Q9NZQ7 19-238): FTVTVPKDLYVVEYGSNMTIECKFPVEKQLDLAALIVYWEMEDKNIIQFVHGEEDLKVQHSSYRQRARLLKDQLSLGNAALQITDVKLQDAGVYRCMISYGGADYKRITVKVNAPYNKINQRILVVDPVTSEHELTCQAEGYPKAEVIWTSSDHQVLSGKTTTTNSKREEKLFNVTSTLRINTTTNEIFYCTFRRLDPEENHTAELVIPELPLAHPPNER

Binder | binding result (PDL1-ECD-hFc蛋白) | EC50 (IGF1R-ECD-His蛋白 [1]) | IC50, inhibition of BxPC3 proliferation with IGF-1 100 ng/mL (CCK8) (IGF1R on BxPC3 cells) | EC50, PD-1/PD-L1 Blockade Bioassay (luciferase reporter) [2] | EC50 (PDL1-ECD-His蛋白) | binding result (IGF1R-ECD-His蛋白 [3])
B1 | no binding (tested: 起始浓度为30nM) | 157 pM and 67.6 pM | 6770 pM and 14000 pM |  |  | 
B2 |  | 137 pM | 39600 pM | 401 pM | 85.8 pM | 
B3 |  | 96.1 pM | 67000 pM | 336 pM | 79 pM | 
B4 |  | 46.5 pM | 5620 pM | 390 pM | 57.2 pM | 
B5 |  | 64.8 pM | 20500 pM | 496 pM | 74.9 pM | 
B6 |  | 193 pM | 1960 pM | 2980 pM | 391 pM | 
B7 |  | 185 pM | 2510 pM | 1750 pM | 296 pM | 
B8 |  | 249 pM | 16500 pM | 1310 pM | 249 pM | 
B9 |  | 315 pM | 47700 pM | 1830 pM | 301 pM | 
B10 |  |  |  | 364 pM and 901 pM | 83.6 pM and 146 pM | no binding (tested: 起始浓度为30nM)
